Among the data in US20130005666A1 are background luminescence of the Neh2-luc reporter cell line (fold decrease) values, retold here.

For the test, the target named is Neh2-luciferase fusion protein (human; firefly).

“FLAG-labeled Keap1 expressed from an adenovirus” returned a background luminescence of the Neh2-luc reporter cell line (fold decrease) of 3.5.
